Data set [1] concerns the molecule itself. As to the kind of experiment: negative-stain transmission electron microscopy; purified 20S complexes at 0.035 mg/ml on carbon-coated grids, 2% uranyl acetate.
Data set [2] concerns the molecule itself. As to the kind of experiment: SEC-MALS; 100 μl protein complex at 2 mg/ml, Superdex 200 10/300 Increase GL, 20 mM Tris (pH 8.0), 300 mM NaCl, 25 °C. Background: Size exclusion chromatography separates by hydrodynamic size, large species first.

B1: Saci0613 20S proteasome α-subunit, untagged (natural protein, S. acidocaldarius, UniProt Q4JB24 1-242, looked up)
chain: MALGPAAMGYDRAITIFSPDGSLYQVDYAFEAVKRGWTTLGVKTKSGVVLLAEKRKATQLLDVDGIEKIFMLDDHVGCTFAGLASDGRILIDYARSQALQHRLIYDEPISIEYLTKVISDVKQAYTQHGGVRPFGVALIVGGIDKGKQPKLLMTEPSGQFMPYYAVAIGQGGYTATEYLEKNYKEDLDIQSTILLALRALMATLKPGEKLNYSSVEIGYADVDSGTFKKLTTEERSDLLQKI
notes: 20S proteasome α-subunit, S. acidocaldarius DSM639, Saci0613; also called Saci0613 α; 0613 α-subunit; source: E. coli Rosetta (DE3) pLysS, co-expressed with β-subunit(s); in heat-clarified lysate, and purified as part of the complex (Ni-NTA IMAC, size exclusion chromatography)
For B1, the binding result in data set [1] is “binds”.

B2: Saci0656 PAN (proteasome-activating nucleotidase) regulatory ATPase of S. acidocaldarius (enzyme, UniProt F2Z6H9 1-396, looked up)
chain: MFGDVDSYKNRENNNNYDETLVKLLEEKIEALTKEIDKLRQDLNWYKTELEKLLAPPYIEATILDILPDGKVIVRSSSGPNLVVNVATNVDVSKLKPGMSVALSQRGSTIIDILPNREDIIVKSFELIEKPNIHYSDIGGLEDQINELREVVELPLKNKKLFEELGIEPPKGVLLYGPPGTGKTMLAKAVAAESNATFIHVVASEFAQKFVGEGARIVREVFELARKKAPSIIFIDELDAIAARRIDIGTSGEREIQRTLMQLLAEIDGFKALDNVKIIAATNRIDILDPAILRPGRFDRLIEVPLPDEKGRKEIFKIYLQRMRINENDKLNYDLIAQLTDGFSGADIKNVCTEAGYMAIREGRESIKFQDIIRAIDKIKKKNLRKAINTRTEKYL
notes: ORF amplified from genomic DNA; also called PAN ATPase; PAN regulatory ATPase; source: E. coli Rosetta (DE3) pLysS, purified (details in the Supplementary Methods)
B2: the stoichiometry N – broadly, a count of units in the complex or per binding partner – in data set [2] is 6.

B3: Saci0662ΔN, N-terminally truncated Saci0662 β-subunit (without the pro-peptide), His-tagged (domain or fragment, S. acidocaldarius, UniProt Q4JAY3 7-195, looked up)
chain: TAIGIKTKDGVVLAAERRLSYGDFVLSKSARKVFKLGRFGIAGAGIVGDIQTLTRIMNVEIKYYEMYNSRKISARAAAKLLSVILYQNKVLPYISELLFGGVDEDGPKLFILDPIGSLIEDSYAAVGSGARVAIGVLEAEYNESLTSEAAKELAIKSMKSAVERDVMSGDGIDILIINKNNIYEDFIKI
notes: source: E. coli Rosetta (DE3) pLysS, co-expressed with Saci0613 (with or without Saci0909ΔN); in heat-clarified lysate, and purified as part of the complex (Ni-NTA IMAC, size exclusion chromatography); not shown: His tag, C-terminal, kept
For B3, the binding result in data set [1] is recorded as “binds”.

The record behind these values is paper PMC4569737, “Involvement of a eukaryotic-like ubiquitin-related modifier in the proteasome pathway of the archaeon Sulfolobus acidocaldarius” (Nature Communications, 2015).
